Data on 23 molecules can be found in PMC4423211 (2015).

A word on the Kd: it is the concentration at which binding is half-saturated. A lower Kd goes with higher affinity.

The target in test [1] is IL-1RAcP-ECD-Fc, wild type (mouse) (UniProt Q61730). The experiment in a line: SPR; equilibrium; Biacore T200, 25 °C, 10 mM Hepes (pH 7.9), 150 mM NaCl, 0.05% Tween-20; IL-1RAcP-ECD-Fc captured (about 700 RU) by anti-Fc antibodies immobilised on a CM5 chip; PTPδ Ig1–Fn1 variants or mutants injected as analytes, 15.6 to 4,000 nM. Background: Surface plasmon resonance follows binding to a sensor surface in real time, without labels.

Test [2] deals with IL1RAPL1-ECD-His6, wild type (mouse) (UniProt P59823). The experiment in a line: SPR; equilibrium; Biacore T200, 25 °C, 10 mM Hepes (pH 7.9), 150 mM NaCl, 0.05% Tween-20; IL1RAPL1-ECD-His6 amine-coupled on a CM5 chip (about 2,000 RU); PTPδ Ig1–Fn1 variants or mutants injected as analytes, 15.6 to 4,000 nM.
The target is the same in test [3].
For another test, the target named is T1, IL1RAP (Mus musculus (Mouse), UniProt Q61730).
T1 chain: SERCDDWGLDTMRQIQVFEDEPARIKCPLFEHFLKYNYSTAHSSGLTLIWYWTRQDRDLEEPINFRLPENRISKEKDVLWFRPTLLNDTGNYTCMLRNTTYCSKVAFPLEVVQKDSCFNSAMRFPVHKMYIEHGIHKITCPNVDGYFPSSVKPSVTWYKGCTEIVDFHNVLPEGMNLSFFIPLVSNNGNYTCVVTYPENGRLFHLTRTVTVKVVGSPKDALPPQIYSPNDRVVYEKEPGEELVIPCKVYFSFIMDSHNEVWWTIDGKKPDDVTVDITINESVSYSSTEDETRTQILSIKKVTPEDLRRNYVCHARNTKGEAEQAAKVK
The experiment in a line: SPR equilibrium 25C, PTPRD Ig1-Fn1 analyte.

A further test has as its target T2, IL1RAPL1 (Mus musculus (Mouse), UniProt P59823).
T2 chain: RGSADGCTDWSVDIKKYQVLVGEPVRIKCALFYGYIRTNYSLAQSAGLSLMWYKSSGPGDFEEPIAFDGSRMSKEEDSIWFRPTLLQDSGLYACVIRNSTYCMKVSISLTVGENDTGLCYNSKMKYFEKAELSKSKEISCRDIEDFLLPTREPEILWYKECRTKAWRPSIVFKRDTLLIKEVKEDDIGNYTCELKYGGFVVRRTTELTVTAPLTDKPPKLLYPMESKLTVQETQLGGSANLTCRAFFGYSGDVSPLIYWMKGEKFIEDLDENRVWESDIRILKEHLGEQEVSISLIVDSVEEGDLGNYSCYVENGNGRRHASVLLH
The experiment in a line: SPR equilibrium 25C, PTPRD Ig1-Fn1 analyte.

Sequence of IL1RAPL1-ECD-His6, wild type (mouse) (P59823 19-352): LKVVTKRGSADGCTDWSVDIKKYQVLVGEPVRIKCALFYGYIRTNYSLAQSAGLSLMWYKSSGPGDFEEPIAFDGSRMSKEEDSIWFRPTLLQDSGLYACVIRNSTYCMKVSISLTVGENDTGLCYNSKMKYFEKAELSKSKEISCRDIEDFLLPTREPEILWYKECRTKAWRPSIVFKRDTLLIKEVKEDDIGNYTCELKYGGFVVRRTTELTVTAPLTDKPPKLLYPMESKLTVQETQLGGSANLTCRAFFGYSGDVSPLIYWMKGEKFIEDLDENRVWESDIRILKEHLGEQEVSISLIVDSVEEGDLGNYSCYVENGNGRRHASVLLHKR

“PTPδ Ig1–Fn1 splicing variant meA3/− (domain or fragment)” yielded a dissociation constant (Kd) in test [1] of 2.8 µM. In other words, the single-digit micromolar range. As to “PTPδ Ig1–Fn1 splicing variant meA6/+ (domain or fragment)”, the Kd in test [2] was determined as 0.81 µM; in test [1] it was 0.73 µM. The like results for “PTPδ Ig1–Fn1, meB replaced by three tandem units of meB (domain or fragment)” were, in that order, 0.42 µM and 3.8 µM. The molecule PTPδ Ig1–Fn1 Y273A (domain or fragment) came in with a Kd in test [2] of 0.86 µM. This lies in the sub-micromolar range. For PTPδ Ig1–Fn1 R75A (domain or fragment), the synaptogenic (postsynapse-inducing) activity: accumulation of Shank2 in cortical neurons around magnetic beads conjugated with PTPδ-ECD-Fc R75A, against wild-type PTPδ-ECD-Fc in test [3] is 7%. In addition, the Kd came out at 2.8 µM in test [2] and 1.1 µM in test [1]. In test [1], PTPδ Ig1–Fn1 E286A (domain or fragment) returned a Kd of 5.3 µM. Still for that read-out and setting: next, “PTPδ Ig1–Fn1 splicing variant meA3/+ (domain or fragment)”: 0.51 µM.

For “PTPδ Ig1–Fn1 splicing variant meA9/− (domain or fragment)”, the values for the Kd in test [2] and in test [1] were 0.8 µM and 2 µM, respectively. In turn, “PTPδ Ig1–Fn1 splicing variant meA6/− (domain or fragment)” yielded a Kd in test [1] of 2.3 µM. Take “PTPδ Ig1–Fn1, meB replaced by Gly-Ser-Ser-Gly (domain or fragment)”: the Kd in test [2] came out at 0.14 µM; in test [1], 0.64 µM. For “PTPδ Ig1–Fn1, meB replaced by two tandem units of meB (domain or fragment)” the same measures were 0.15 µM and 1.5 µM. Consider “PTPδ Ig1–Fn1 splicing variant −/− (lacking both meA and meB) (domain or fragment)”, for which the Kd in test [1] was 2.4 µM. “PTPδ Ig1–Fn1, meB replaced by Gln-Leu-Glu-Gln (domain or fragment)”: the Kd stood at 0.16 µM in test [2] and 0.91 µM in test [1]. As for “PTPδ Ig1–Fn1 splicing variant −/+ (no meA, with meB) (domain or fragment)”, the Kd in test [1] worked out at 2.2 µM. For PTPδ Ig1–Fn1 R196A (domain or fragment), the Kd in test [2] is 1.7 µM; in test [1], 0.89 µM.

B1: PTPRD_A3B0 (protein)
chain: ETPPRFTRTPVDQTGVSGGVASFICQATGDPRPKIVWNKKGKKVSNQRFEVIEFDDGSGSVLRIQPLRTPRDEAIYECVASNNVGEISVSTRLTVLREDQIPRGFPTIDMGPQLKVVERTRTATMLCAASGNPDPEITWFKDFLPVDTSNNNGRIKQLRSESIGALQIEQSEESDQGKYECVATNSAGTRYSAPANLYVRVRRVPPRFSIPPTNHEIMPGGSVNITCVAVGSPMPYVKWMLGAEDLTPEDDMPIGRNVLELNDVRQSANYTCVAMSTLGVIEAIAQITVKA
For the molecule B1, the Kd with IL1RAP is 2.8 µM; with IL1RAPL1, above 4 µM.

B2: PTPRD_A6B1 (protein)
chain: ETPPRFTRTPVDQTGVSGGVASFICQATGDPRPKIVWNKKGKKVSNQRFEVIEFDDGSGSVLRIQPLRTPRDEAIYECVASNNVGEISVSTRLTVLREDQIPRGFPTIDMGPQLKVVERTRTATMLCAASGNPDPEITWFKDFLPVDTSNNNGRIKQLRSGGTPIRGALQIEQSEESDQGKYECVATNSAGTRYSAPANLYVRELREVRRVPPRFSIPPTNHEIMPGGSVNITCVAVGSPMPYVKWMLGAEDLTPEDDMPIGRNVLELNDVRQSANYTCVAMSTLGVIEAIAQITVKA
As to B2, the dissociation constant (Kd) with IL1RAP turned out to be 0.73 µM; with IL1RAPL1, 0.81 µM.

B3: PTPRD_A6B0 (protein)
chain: ETPPRFTRTPVDQTGVSGGVASFICQATGDPRPKIVWNKKGKKVSNQRFEVIEFDDGSGSVLRIQPLRTPRDEAIYECVASNNVGEISVSTRLTVLREDQIPRGFPTIDMGPQLKVVERTRTATMLCAASGNPDPEITWFKDFLPVDTSNNNGRIKQLRSGGTPIRGALQIEQSEESDQGKYECVATNSAGTRYSAPANLYVRVRRVPPRFSIPPTNHEIMPGGSVNITCVAVGSPMPYVKWMLGAEDLTPEDDMPIGRNVLELNDVRQSANYTCVAMSTLGVIEAIAQITVKA
Take B3: the Kd is 2.3 µM with IL1RAP and above 4 µM with IL1RAPL1.

B4: PTPRD_A9B1 (protein)
chain: ETPPRFTRTPVDQTGVSGGVASFICQATGDPRPKIVWNKKGKKVSNQRFEVIEFDDGSGSVLRIQPLRTPRDEAIYECVASNNVGEISVSTRLTVLREDQIPRGFPTIDMGPQLKVVERTRTATMLCAASGNPDPEITWFKDFLPVDTSNNNGRIKQLRSESIGGTPIRGALQIEQSEESDQGKYECVATNSAGTRYSAPANLYVRELREVRRVPPRFSIPPTNHEIMPGGSVNITCVAVGSPMPYVKWMLGAEDLTPEDDMPIGRNVLELNDVRQSANYTCVAMSTLGVIEAIAQITVKA
With B4, the results for the Kd in the test with IL1RAP and in the test with IL1RAPL1 were 0.68 µM and 0.15 µM, respectively.

B5: PTPRD_A9B0 (protein)
chain: ETPPRFTRTPVDQTGVSGGVASFICQATGDPRPKIVWNKKGKKVSNQRFEVIEFDDGSGSVLRIQPLRTPRDEAIYECVASNNVGEISVSTRLTVLREDQIPRGFPTIDMGPQLKVVERTRTATMLCAASGNPDPEITWFKDFLPVDTSNNNGRIKQLRSESIGGTPIRGALQIEQSEESDQGKYECVATNSAGTRYSAPANLYVRVRRVPPRFSIPPTNHEIMPGGSVNITCVAVGSPMPYVKWMLGAEDLTPEDDMPIGRNVLELNDVRQSANYTCVAMSTLGVIEAIAQITVKA
As for B5, the Kd with IL1RAP came out at 2 µM; with IL1RAPL1 it was 0.8 µM.

B6: PTPRD_A0B0 (protein)
chain: ETPPRFTRTPVDQTGVSGGVASFICQATGDPRPKIVWNKKGKKVSNQRFEVIEFDDGSGSVLRIQPLRTPRDEAIYECVASNNVGEISVSTRLTVLREDQIPRGFPTIDMGPQLKVVERTRTATMLCAASGNPDPEITWFKDFLPVDTSNNNGRIKQLRSGALQIEQSEESDQGKYECVATNSAGTRYSAPANLYVRVRRVPPRFSIPPTNHEIMPGGSVNITCVAVGSPMPYVKWMLGAEDLTPEDDMPIGRNVLELNDVRQSANYTCVAMSTLGVIEAIAQITVKA
As for B6, the Kd is 2.4 µM with IL1RAP and above 4 µM with IL1RAPL1.

B7: PTPRD_A3B1 (protein)
chain: ETPPRFTRTPVDQTGVSGGVASFICQATGDPRPKIVWNKKGKKVSNQRFEVIEFDDGSGSVLRIQPLRTPRDEAIYECVASNNVGEISVSTRLTVLREDQIPRGFPTIDMGPQLKVVERTRTATMLCAASGNPDPEITWFKDFLPVDTSNNNGRIKQLRSESIGALQIEQSEESDQGKYECVATNSAGTRYSAPANLYVRELREVRRVPPRFSIPPTNHEIMPGGSVNITCVAVGSPMPYVKWMLGAEDLTPEDDMPIGRNVLELNDVRQSANYTCVAMSTLGVIEAIAQITVKA
Consider B7, for which the Kd with IL1RAP is 0.51 µM; in the test with IL1RAPL1, above 4 µM.

B8: PTPRD_A0B1 (protein)
chain: ETPPRFTRTPVDQTGVSGGVASFICQATGDPRPKIVWNKKGKKVSNQRFEVIEFDDGSGSVLRIQPLRTPRDEAIYECVASNNVGEISVSTRLTVLREDQIPRGFPTIDMGPQLKVVERTRTATMLCAASGNPDPEITWFKDFLPVDTSNNNGRIKQLRSGALQIEQSEESDQGKYECVATNSAGTRYSAPANLYVRELREVRRVPPRFSIPPTNHEIMPGGSVNITCVAVGSPMPYVKWMLGAEDLTPEDDMPIGRNVLELNDVRQSANYTCVAMSTLGVIEAIAQITVKA
With B8, the Kd with IL1RAP is 2.2 µM; with IL1RAPL1, above 4 µM.
